In patent publication US8263326B2, “Compounds and methods for modulating activation of NF-κB” (Signal Pharmaceuticals, LLC, priority 1998, dated 2012):
Non-standard residues stand in square brackets, D forms with d. No end group written: not given here. pS = N[C@@H](COP(=O)(O)O)C(=O)O

Key:
β-TrCP = target: T1, β-TrCP (Homo sapiens, UniProt Q9Y297); experiment: Peptide competition of β-TrCP binding to pIκBα; conditions: FIG. 11B
T1 construct: made in house; host or cells: transfected 293 (293T) cells, immunoprecipitated through FLAG
Protocol: (§1) FIGS. 11A-11C are Western blots illustrating binding and ubiquitination specificity of E3 ubiquitin ligase family members. Within these figures, mβ-TrCP indicates mouse β-TrCP, hβ-TrCP indicates human β-TrCP, Δβ-TrCP indicates human β-TrCP with a deletion of the F box region and Slimb indicates the Drosophila Slimb protein. FIG. 11A illustrates selective binding to pIκBα. Proteins were immunoprecipitated through a FLAG epitope from transfected 293T cells, incubated with immunopurified IκBα/NF-κB complex, which had been treated (−/+IKK) as indicated and the bound material was analyzed by Western blotting with the indicated antibodies. […] FIG. 11C illustrates in vitro ubiquitination of pIκBα by the E3 family member proteins. Immunopurified FLAG-tagged proteins were incubated with ^35 S-labeled IκBα/NF-κB complexes, treated (−/+IKK) as indicated and subject to ubiquitination in the presence of ATPγS, ubiquitin. E1 and UBC5C. The IκBα substrate (composed of full-length and two degradation products), pIκBα-polyubiquitin conjugates and molecular size markers are indicated on the left.
The ability of these proteins to bind pIκBα specifically and assist in its ubiquitination was examined in a cell-free system. […] The bound material was analyzed by Western blotting with anti-IκBα and anti-FLAG antibodies. […]

[1] = tested on: ubiquitin-ligase activity associated with the pIκB-complex; experiment: Recruitment of ubiquitin-ligase activity from HeLa lysate to IKK2-EE phosphorylated IκBα/NF-κB complex; format: biochemical, human; conditions: peptide included in incubation with HeLa lysate, FIG. 6
Protocol: Following immunoprecipitation of ^35S-labeled IκBα/NF-κB complexes from a non-stimulated HeLa lysate previously incubated with recombinant ^35S-labeled IκBα, the complexes were phosphorylated by the recombinant IKK2-EE, eluted with the p65 cognate peptide and subjected to in vitro ubiquitination. After incubation with IKK2-EE, nearly all of the ^35S-IκB was phosphorylated. […] Therefore, IκB phosphorylation by IKK was not sufficient to promote its ubiquitination in the presence of E1 and E2. Conceivably, pIκBα ubiquitination requires an additional component of the HeLa lysate that was not co-immunopurified from non-stimulated cells.
To confirm this hypothesis, immuno-bound IκBα/NF-κB complexes were incubated with a non-stimulated HeLa lysate, either directly or following IKK2-EE phosphorylation, washed extensively with high-salt buffer and eluted with the p65 peptide. Indeed, incubation of the phosphorylated IκB complexes (FIG. 6 lane 3), but not of the non-phosphorylated ones (lane 1), with the HeLa lysate, provided the pIκB-ligase component(s) necessary for pIκBα conjugation. No signal was obtained when E1 or E2 were omitted from the reaction, confirming that the signal at the top of the gel represents poly-ubiquitin IκBα-conjugates (lanes 5, 6). […]

[2] = tested on: pIκBα-associated ubiquitin-ligase; experiment: In vitro ubiquitination of pIκBα/NF-κB complex immunopurified from TNFα-stimulated HeLa cells with E1 and UBC5C; format: biochemical, human; conditions: Bestatin 40 μg/ml, FIG. 5
Protocol: To further study the recruitment of components of the ubiquitin machinery by phosphorylated IκBα-complexes, pIκBα/NF-κB complexes were purified from proteasome inhibited, TNF-α stimulated HeLa cells, and their ubiquitination potential was evaluated. HeLa cells were pre-incubated with the proteasome inhibitor ALLN (150 μM) for 1 hour and stimulated for 10 minutes with TNFα. […]
The immunopurified fraction was supplemented with various components of the ubiquitin system and subjected to in vitro ubiquitination. […] The reaction mix was then boiled in SDS-buffer and the sample analyzed by SDS-PAGE (8.5%) and phospho-imaging.
To determine the source of the IκBα-conjugates, the ubiquitination reactions were performed in the presence of a pIκBα peptide (pp12; CDRHDS[PO3]GLDS[PO3]; SEQ ID NO:22) (lane 7) or a serine/glutamic-acid substituted IκBα peptide (p12S/E) (lane 8). Both peptides were synthetic, purchased from Alfa-Diagnostic, Inc., and then HPLC-purified, analyzed by mass spectrometry, verified for the predicted structure and proven to be over 85% pure. […]

[3] = tested on: pIκBα-associated proteins (p54, p58, p61, 64 kD); experiment: Association of 35S-labeled HeLa lysate proteins with immuno-bound pIκBα/NF-κB complex (SDS-PAGE, autoradiography); format: binding, human; conditions: peptide added to radiolabeled HeLa lysate, FIG. 7B
Protocol: HeLa extract (250 mg) was incubated with 250 μl anti-p65 immunobeads. Following four washes in buffer A (1M KCl, 0.5% NP40, 50 mM Tris buffer pH 7.6, 1 mM DTT) and one wash in buffer B (50 mM Tris buffer, pH 7.6, 1 mM DTT), half the beads were subject to in vitro phosphorylation with IKK and half underwent mock-phosphorylation. The beads were washed twice in buffer A and once in buffer B, agitated with 100 mg HeLa extract in the presence of 1 μm okadaic acid for 30 min at 25° C., washed four times with buffer A, once in buffer A and eluted with 1 mg/ml p65 peptide. A similar experiment was performed with 10 mg ^35 S-metabolically-labeled HeLa cell lysate (100 μCi/ml Met/Cys for 8 hours) and 25 μl p65-immunobeads. Eluate-fractions derived from both the hot and cold lysates were mixed, boiled in SDS-sample buffer and analyzed by 7.5% SDS-PAGE and autoradiography. Gel slices corresponding to the autoradiogram signals were excised and their protein-bands sequenced by mass-spectrometry, as described below.
To circumvent the possible masking of the putative pIκB-ubiquitin ligase, we replaced the ligase source with ^35S-biosynthetically-labeled HeLa lysate and traced the IκBα-associated proteins by SDS-PAGE analysis and autoradiography (FIG. 7B). In parallel, the various fractions were tested for their ubiquitin-ligase capacity. […]

pIκBα = target: T2, pIκBα (Homo sapiens, UniProt P25963); experiment: Binding of immobilized FLAG-tagged E3 family members to IκBα/NF-κB complex (Western blot); conditions: FIG. 11A
T2 construct: The IκBα/NF-κB complex was immunopurified from HeLa cells; endogenous in cells; host or cells: HeLa cells
Protocol: as §1
The ability of these proteins to bind pIκBα specifically and assist in its ubiquitination was examined in a cell-free system. The IκBα/NF-κB complex was immunopurified from HeLa cells and the immune complex was either phosphorylated with IKK2-EE or mock-phosphorylated as described above. It was then incubated with the following immobilized FLAG-tagged E3 family members immunoprecipitated from transfected 293 cells: mouse β-TrCP (mβ-TrCP), human β-TrCP (hβ-TrCP), human β-TrCP with a deletion of the F box region residues 122-168 (Δβ-TrCP) and the Drosophila Slimb protein. The bound material was analyzed by Western blotting with anti-IκBα and anti-FLAG antibodies. […] Furthermore, β-TrCP binding was abrogated by a peptide representing the pIκBα recognition motif (pp10; DRHDS(PO3)GLDS(PO3)M (SEQ ID NO:29); see FIG. 11B, lane 3), but not by the control peptide (lane 4), specifying the site of pIκBα recognition of the conserved DS(PO3)GLDS(PO3) (SEQ ID NO:30) sequence.

[4] = tested on: NF-κB activation in Jurkat cells; experiment: κB-dependent luciferase assay in P/I-stimulated Jurkat cells; format: cell-based; conditions: transient over-expression in stimulated Jurkat cells
Text: FIGS. 12A and 12B illustrate inhibition of IκBα degradation and NF-κB activation by overexpression of Δβ-TrCP, a dominant negative molecule. FIG. 12A is a graph depicting the results of a κB-dependent luciferase assay in P/I-stimulated Jurkat cells transfected with κB-Luc reporter plasmid and the indicated expression vectors (i.e., from left to right, vector alone, vector encoding human β-TrCP, vector encoding human β-TrCP with a deletion of the F box region and vector encoding Drosophila Slimb protein). NF-κB activity is shown as relative (fold) luciferase activity, the non-stimulated empty FLAG vector being the reference (single-fold). FIG. 12B depicts the results of western blot analysis of IκBα of phorbol-ester and Ca^++ ionophore [P/I]-stimulated and non-stimulated Jurkat cells transfected with an empty FLAG vector or Δβ-TrCP. The post-stimulation interval (min) is indicated.

T2 sequence (P25963 whole entry): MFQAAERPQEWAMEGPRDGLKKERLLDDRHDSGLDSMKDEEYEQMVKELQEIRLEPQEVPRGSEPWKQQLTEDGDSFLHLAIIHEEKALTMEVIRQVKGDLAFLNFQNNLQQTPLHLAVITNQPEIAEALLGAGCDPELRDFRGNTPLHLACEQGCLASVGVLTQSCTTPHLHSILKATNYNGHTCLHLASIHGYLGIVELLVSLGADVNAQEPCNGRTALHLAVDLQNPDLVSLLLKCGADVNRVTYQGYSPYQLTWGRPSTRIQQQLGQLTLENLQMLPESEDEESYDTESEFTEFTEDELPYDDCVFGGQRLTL
T2 sequence (Q04206 whole entry partner): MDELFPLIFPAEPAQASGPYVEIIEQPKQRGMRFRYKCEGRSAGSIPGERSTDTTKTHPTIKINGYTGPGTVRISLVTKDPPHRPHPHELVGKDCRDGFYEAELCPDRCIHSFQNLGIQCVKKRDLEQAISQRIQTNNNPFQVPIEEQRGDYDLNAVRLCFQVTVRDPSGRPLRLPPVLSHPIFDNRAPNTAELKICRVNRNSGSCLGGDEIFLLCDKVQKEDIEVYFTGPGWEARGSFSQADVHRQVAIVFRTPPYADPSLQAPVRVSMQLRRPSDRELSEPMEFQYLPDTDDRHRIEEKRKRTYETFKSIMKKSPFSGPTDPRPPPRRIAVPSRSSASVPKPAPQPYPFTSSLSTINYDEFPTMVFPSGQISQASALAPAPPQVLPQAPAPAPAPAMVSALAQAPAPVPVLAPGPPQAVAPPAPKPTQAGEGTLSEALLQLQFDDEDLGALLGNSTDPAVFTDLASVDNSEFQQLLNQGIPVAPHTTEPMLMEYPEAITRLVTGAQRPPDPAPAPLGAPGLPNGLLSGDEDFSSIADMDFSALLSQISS
T1 sequence (P63208 whole entry partner, one chain of several): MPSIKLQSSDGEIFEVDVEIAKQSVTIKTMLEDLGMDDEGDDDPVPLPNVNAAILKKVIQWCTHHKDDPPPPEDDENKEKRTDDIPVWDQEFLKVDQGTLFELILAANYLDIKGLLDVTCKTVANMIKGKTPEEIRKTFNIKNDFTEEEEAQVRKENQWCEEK

pp10: peptide representing the pIκBα recognition motif, DRHDS(PO3)GLDS(PO3)M, SEQ ID NO:29 (DRHD[pS]GLD[pS]M; listed as Homo sapiens)
effect of peptide on β-TrCP-pIκBα binding (β-TrCP): abrogated

pp12: pIκBα peptide CDRHDS[PO3]GLDS[PO3]; SEQ ID NO:22 (CDRHD[pS]GLD[pS]; listed as Homo sapiens)
ubiquitin-ligase activity associated with the pIκB-complex [1]: abrogated
formation of polyubiquitin-IκBα conjugates [2]: abolished
association of distinctive 35S-protein bands with pIκBα [3]: three bands were eliminated

B1: hβ-TrCP: FLAG-tagged human β-TrCP, E3 family member (protein)
chain: MDPAEAVLQEKALKFMNSSEREDCNNGEPPRKIIPEKNSLRQTYNSCARLCLNQETVCLASTAMKTENCVAKTKLANGTSSMIVPKQRKLSASYEKEKELCVKYFEQWSESDQVEFVEHLISQMCHYQHGHINSYLKPMLQRDFITALPARGLDHIAENILSYLDAKSLCAAELVCKEWYRVTSDGMLWKKLIERMVRTDSLWRGLAERRGWGQYLFKNKPPDGNAPPNSFYRALYPKIIQDIETIESNWRCGRHSLQRIHCRSETSKGVYCLQYDDQKIVSGLRDNTIKIWDKNTLECKRILTGHTGSVLCLQYDERVIITGSSDSTVRVWDVNTGEMLNTLIHHCEAVLHLRFNNGMMVTCSKDRSIAVWDMASPTDITLRRVLVGHRAAVNVVDFDDKYIVSASGDRTIKVWNTSTCEFVRTLNGHKRGIACLQYRDRLVVSGSSDNTIRLWDIECGACLRVLEGHEELVRCIRFDNKRIVSGAYDGKIKVWDLVAALDPRAPAGTLCLRTLVEHSGRVFRLQFDEFQIVSSSHDDTILIWDFLNDPAAQAEPPRSPSRTYTYISR
modifications: left off: small tags and cut ends
notes: FLAG-tagged human β-TrCP, E3 family member
relative binding of IκBα / pIκBα (pIκBα; comparison between family members): far better than the highly homologous Drosophila protein
binding to IKK-phosphorylated versus mock-phosphorylated IκBα (pIκBα; FLAG-tagged protein from transfected 293 cells): exclusively bound IKK-phosphorylated, but not mock-phosphorylated, IκBα
activation of NF-κB [4]: not inhibitory
